# T1: Trop2 (UniProt P09758 27-323, limits assumed)
# T1 construct: whole, on cells; also called TACSTD2; Trop2 on A431 cells
# T1 sequence (looked up): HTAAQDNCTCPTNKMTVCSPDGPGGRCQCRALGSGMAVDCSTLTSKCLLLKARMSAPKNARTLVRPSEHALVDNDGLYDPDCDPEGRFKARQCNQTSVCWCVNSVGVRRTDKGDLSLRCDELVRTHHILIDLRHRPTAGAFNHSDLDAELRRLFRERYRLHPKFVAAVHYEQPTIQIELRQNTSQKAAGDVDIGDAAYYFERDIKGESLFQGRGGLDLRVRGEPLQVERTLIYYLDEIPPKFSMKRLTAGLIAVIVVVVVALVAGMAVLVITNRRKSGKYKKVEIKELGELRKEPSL
# Legend:
# [1] = biological target: T1, Trop2; assay: flow cytometry on A431 and BxPC3 cells, human albumin added during incubation, goat anti-VHH and Alexa Fluor488 donkey anti-goat detection
# [2] = test system: BxPC3 cells; assay: Binding activity of long-acting Trop2 antibody conjugated drug to BxPC3 cells by flow cytometry
# Description: (§1) Flow cytometry was used to detect the binding activity of these candidate single domain antibodies to Trop2 high expression cell line A431. After the cultured A431 cells were digested with trypsin and neutralized in complete medium, the cells were washed once with PBS, collected and counted, and the cells were added to a 96-well V-bottom plate, 2E5 cells/well. Diluted candidate single domain antibodies and control antibodies BMK1, BMK2 and BMK3 (control antibody sequences are all referred to patent CN111518212B, where BMK1 sequence is the amino acid sequence as set forth in SEQ ID NO: 78, BMK2 sequence is the amino acid sequence as set forth in SEQ ID NO: 65, and BMK3 sequence is the amino acid sequence as set forth in SEQ ID NO: 68) were added to the plate respectively and incubated at 4°C for 40min. After centrifugation, cells were washed with PBS twice, and APC anti-HA antibody was added to incubate at 4°C for 40min. […] APC signal of each sample was detected by flow cytometry.
# (§2) The long-acting Trop2 antibody conjugated drug HuNb1-Alb Nb1-MMAE was incubated with A431 and BxPC3 cells, and the binding activity of the antibody conjugated drug to the cells was detected by flow cytometry. […] After centrifugation, the cells were washed and the supernatant was removed, and the cells were resuspended in PBS and then the Alexa Fluor488 signal of each sample was detected by flow cytometry.
# [3] = test system: BxPC3 cells; assay: Cell killing activity on BxPC3 cells by Cell Counting Kit-8 (CCK8); assay type: cell-based; conditions: pre-incubated with human serum albumin, 96 hours culture, CCK8 OD450 (FIG.8)
# Description: (§3) The long-acting Trop2 single domain antibody conjugated drug HuNb1-Alb […]-MMAE was gradiently diluted in cell medium and incubated with human serum albumin for 20 minutes, then co-incubated with A431 cells and BxPC3 cells, respectively. Cell Counting Kit-8 was added after 96 hours of culture at 37°C in 5% CO2 incubator, and the cells were incubated in the incubator for 2.5 hours. After reading the data (OD450) in the microplate reader, IC50 was calculated.
# [4] = test system: A431 cells; assay: Binding activity of long-acting Trop2 antibody conjugated drug to A431 cells by flow cytometry
# Description: as §1, §2
# [5] = test system: BxPC3 pancreatic cancer cells; assay: Anti-tumor activity in BxPC3 tumor-bearing mice; assay type: in vivo; conditions: NCG mice
# Description: NCG mice were inoculated with BxPC3 pancreatic cancer cells for tumorigenesis. When the tumors grew to about 80mm^3, they were divided into groups, with 6 mice in each group. Three dose groups were set up to be intraperitoneally injected with HuNb1-Alb Nb1-MMAE at 0.2mg/kg, 1mg/kg and 5mg/kg, three times a week, respectively. The negative control group was intraperitoneally injected with PBS. The positive control group was intraperitoneally injected with 150mg/kg Gemcitabine, three times a week.
# [6] = test system: A431 cells; assay: Cell killing activity on A431 cells by Cell Counting Kit-8 (CCK8); assay type: cell-based; conditions: pre-incubated with human serum albumin, 96 hours culture, CCK8 OD450 (FIG.7)
# Description: as §3
# [7] = biological target: T1, Trop2; assay: flow cytometry on A431 cells, APC anti-HA detection
# [8] = biological target: serum albumin (UniProt P02768); assay: relative binding activity against HuNb3-11; method not described
# Chain of serum albumin (P02768 25-609 limits assumed): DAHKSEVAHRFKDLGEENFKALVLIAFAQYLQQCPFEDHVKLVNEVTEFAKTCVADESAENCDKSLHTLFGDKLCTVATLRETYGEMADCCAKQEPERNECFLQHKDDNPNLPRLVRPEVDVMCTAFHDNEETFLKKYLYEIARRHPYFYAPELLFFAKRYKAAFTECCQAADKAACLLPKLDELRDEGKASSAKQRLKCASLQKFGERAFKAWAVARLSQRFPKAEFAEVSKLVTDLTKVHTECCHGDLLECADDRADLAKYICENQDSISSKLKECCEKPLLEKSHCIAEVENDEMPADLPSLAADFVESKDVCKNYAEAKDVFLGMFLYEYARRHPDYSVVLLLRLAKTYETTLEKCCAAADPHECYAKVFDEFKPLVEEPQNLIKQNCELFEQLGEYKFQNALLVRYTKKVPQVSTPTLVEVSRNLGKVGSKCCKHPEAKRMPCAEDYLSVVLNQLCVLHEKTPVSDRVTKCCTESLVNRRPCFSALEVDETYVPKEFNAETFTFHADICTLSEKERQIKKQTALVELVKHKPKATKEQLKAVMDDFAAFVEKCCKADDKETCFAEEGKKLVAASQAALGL
# [9] = biological target: T1, Trop2; assay: flow cytometry on BxPC3 cells, APC anti-HA detection
molecule,measurement,setting,value
"long-acting Trop2 antibody conjugated drug HuNb1-Alb Nb1-MMAE (bispecific antibody, vc-PAB-MMAE (Monomethylauristatin E) coupled to the free cysteine (C) at the C-terminus, also called HuNb1-Alb Nb1-GGC conjugated with vc-PAB-MMAE) EVQLLESGGGLVQPGGSLRLSCAASGFTFSRACMGWFRQASGKGLEGVAQVYTGGGSTSYADSVKGRFTISQDNAKNTLYLQMNSLKPEDTAVYYCAVGQPYGACYYSDLAPADFSYWGQGTLVTVSSGGGGSGGGGSGGGGSGGGGSEVQLQESGGGLVEPGGSLRLSCVASGFTFQHYAMSWVRQAPGKGLEWVSSISLVGGGTSYADSVKGRFTMSRDNAKNTLYLQLNSLKSEDTAMYYCVRGWHPDVPRPLGQGTLVTVSSGGC",binding result,[1],binds
HuNb1-Alb Nb1-MMAE: long-acting Trop2 antibody conjugated drug: HuNb1-Alb Nb1-GGC coupled with vc-PAB-MMAE (Monomethylauristatin E) (conjugate) EVQLLESGGGLVQPGGSLRLSCAASGFTFSRACMGWFRQASGKGLEGVAQVYTGGGSTSYADSVKGRFTISQDNAKNTLYLQMNSLKPEDTAVYYCAVGQPYGACYYSDLAPADFSYWGQGTLVTVSSGGGGSGGGGSGGGGSGGGGSEVQLQESGGGLVEPGGSLRLSCVASGFTFQHYAMSWVRQAPGKGLEWVSSISLVGGGTSYADSVKGRFTMSRDNAKNTLYLQLNSLKSEDTAMYYCVRGWHPDVPRPLGQGTLVTVSSGGC,binding activity to BxPC3 cells,"[2]; flow cytometry, Alexa Fluor488 signal (FIG.6)",good binding activity
same,effect of the presence of HSA protein on binding to BxPC3 cells,[2]; human blood albumin added during incubation (FIG.6),not affected by the presence of HSA protein
same,killing effect on BxPC3 cells,[3],significant killing effect
same,binding activity to A431 cells,"[4]; flow cytometry, Alexa Fluor488 signal (FIG.5)",good binding activity
same,effect of the presence of HSA protein on binding to A431 cells,[4]; human blood albumin added during incubation (FIG.5),not affected by the presence of HSA protein
same,tumor of high-dose group,"[5]; high-dose group (5mg/kg intraperitoneal, three times a week), after treatment for 20 days",completely fades
same,treatment effect compared with Gemcitabine,"[5]; high-dose group versus 150mg/kg Gemcitabine intraperitoneal, three times a week",significantly better than the treatment effect of Gemcitabine
same,BXPC3 tumor killing activity,"[5]; intraperitoneal 0.2mg/kg, 1mg/kg and 5mg/kg, three times a week (FIG.9)",significant BXPC3 tumor killing activity
same,killing effect on A431 cells,[6],significant killing effect
"humanized Trop2 single domain antibody HuNb2 (VHH, also called Trop2 HuNb2; not shown: HA tag used for APC anti-HA detection) VHH: EVQLLESGGGLVQPGGSLRLSCVDSGSTYSRRYMGWFRRAPGKGLEGVSVISPYGDSTYYADSVKDRFTISRDNAKNTVYLQMNSLKPEDTAMYYCAASWPYQTASLDAMDFTDWGQGTLVTVSS",binding result,[7],binds
anti-serum albumin single domain antibody Alb Nb1 (VHH) VHH: EVQLQESGGGLVEPGGSLRLSCVASGFTFQHYAMSWVRQAPGKGLEWVSSISLVGGGTSYADSVKGRFTMSRDNAKNTLYLQLNSLKSEDTAMYYCVRGWHPDVPRPLGQGTLVTVSS,Relative binding activity EC50,[8],92%
anti-serum albumin single domain antibody Alb Nb4 (VHH) VHH: EVQLQESGGGLVEPGGSLRLSCVASGFTFQHYAMSWVRQAPGKGLEWVSSISTVGGGTSYADSVKGRFTMSRDNAKNTLYLQLNSLKSEDTAMYYCVRGWHPDVPRPLGQGTLVTVSS,Relative binding activity EC50,[8],71%
anti-serum albumin single domain antibody Alb Nb3 (VHH) VHH: EVQLQESGGGLVEPGGSLRLSCVASGFTFQHYAMSWVRQAPGKGLEWVSSISIVGGGTSYADSVKGRFTMSRDNAKNTLYLQLNSLKSEDTAMYYCVRGWHPDVPRPLGQGTLVTVSS,Relative binding activity EC50,[8],80%
anti-serum albumin single domain antibody Alb Nb2 (VHH) VHH: EVQLQESGGGLVEPGGSLRLSCVASGFTFQHYAMSWVRQAPGKGLEWVSSISVVGGGTSYADSVKGRFTMSRDNAKNTLYLQLNSLKSEDTAMYYCVRGWHPDVPRPLGQGTLVTVSS,Relative binding activity EC50,[8],95%
"Trop2 single domain antibody Nb1 (VHH, Camel-derived VHH expressed and purified from E. coli (phage vector pMECS); detected through an HA tag; also called Trop2 Nb1; candidate antibody Nb1; not shown: HA tag (and any other vector-derived tag from pMECS) used for APC anti-HA detection) VHH: QVQLQESGGGSVQAGGSLRLSCAASGFTFSRACMGWFRQASGKEREGVAQVYTGGGSTSYADSVKGRFTISQDNAKNTLYLQMNSLKPEDTAVYYCAVGQPYGACYYSDLAPADFSYWGQGTQVTVSS",binding result,[7],binds
"humanized Trop2 single domain antibody HuNb1 (VHH, Humanized form of Nb1; also called Trop2 HuNb1; not shown: HA tag used for APC anti-HA detection) VHH: EVQLLESGGGLVQPGGSLRLSCAASGFTFSRACMGWFRQASGKGLEGVAQVYTGGGSTSYADSVKGRFTISQDNAKNTLYLQMNSLKPEDTAVYYCAVGQPYGACYYSDLAPADFSYWGQGTLVTVSS",binding result,[9],binds
